Target: T1, bile salt export pump (BSEP), purified, with C-terminal affinity tags (human, UniProt O95342 1-1321)
T1 construct: bile salt export pump (BSEP, ABCB11), human; construct pSGP18-2μ-BSEP; also called purified BSEP; pSGP18-2μ-BSEP; not shown: His tag (inferred from the removal of the tags on Ni-NTA), C-terminal, kept
Assay: pull-down; Strep-tagged partner immobilised on Strep-Tactin resin, detergent-solubilised purified BSEP added for 30 min at 4°C; 50 mM sodium phosphate pH 7, 150 mM NaCl, 20% glycerol, 0.022% DDM; immunoblot against BSEP and Strep-tag II
Settings: both partners purified

T1 sequence (O95342 whole entry): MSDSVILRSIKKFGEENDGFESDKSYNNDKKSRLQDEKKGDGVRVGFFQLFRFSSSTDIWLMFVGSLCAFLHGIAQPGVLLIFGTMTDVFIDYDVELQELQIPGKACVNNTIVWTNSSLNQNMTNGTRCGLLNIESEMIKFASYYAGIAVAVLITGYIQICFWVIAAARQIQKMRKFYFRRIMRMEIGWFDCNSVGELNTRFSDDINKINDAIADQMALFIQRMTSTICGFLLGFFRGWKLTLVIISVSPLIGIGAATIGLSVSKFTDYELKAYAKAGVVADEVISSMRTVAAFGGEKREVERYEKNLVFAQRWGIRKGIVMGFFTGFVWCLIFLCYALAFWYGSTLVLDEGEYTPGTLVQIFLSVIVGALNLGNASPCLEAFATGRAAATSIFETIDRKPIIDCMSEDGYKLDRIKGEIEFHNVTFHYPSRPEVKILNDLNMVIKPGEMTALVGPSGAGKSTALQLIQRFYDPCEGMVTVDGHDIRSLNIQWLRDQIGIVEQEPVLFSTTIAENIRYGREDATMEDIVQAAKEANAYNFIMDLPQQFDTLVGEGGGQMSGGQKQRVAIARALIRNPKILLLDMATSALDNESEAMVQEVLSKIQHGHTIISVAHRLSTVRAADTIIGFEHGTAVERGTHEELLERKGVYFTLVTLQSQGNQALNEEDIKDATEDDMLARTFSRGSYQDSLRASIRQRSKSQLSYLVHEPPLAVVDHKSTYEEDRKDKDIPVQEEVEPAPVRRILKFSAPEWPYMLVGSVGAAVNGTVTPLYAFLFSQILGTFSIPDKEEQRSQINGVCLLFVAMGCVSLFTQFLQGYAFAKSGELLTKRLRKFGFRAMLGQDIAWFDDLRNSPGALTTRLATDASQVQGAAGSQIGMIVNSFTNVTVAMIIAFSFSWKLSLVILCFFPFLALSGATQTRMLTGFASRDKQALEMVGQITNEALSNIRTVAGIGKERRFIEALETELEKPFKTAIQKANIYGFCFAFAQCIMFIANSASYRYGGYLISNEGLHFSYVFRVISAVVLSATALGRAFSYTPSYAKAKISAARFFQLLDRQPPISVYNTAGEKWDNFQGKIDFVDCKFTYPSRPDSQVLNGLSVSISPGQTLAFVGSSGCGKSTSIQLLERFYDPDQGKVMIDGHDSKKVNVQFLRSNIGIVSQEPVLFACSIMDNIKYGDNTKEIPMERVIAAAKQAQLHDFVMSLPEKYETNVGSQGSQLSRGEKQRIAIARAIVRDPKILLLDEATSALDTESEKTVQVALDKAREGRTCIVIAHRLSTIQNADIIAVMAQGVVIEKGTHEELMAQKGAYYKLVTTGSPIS

B1: BACS_(77-690), Strep-tagged, purified (domain or fragment, human, UniProt Q9Y2P5-1 77-690, looked up)
chain: PARLPPGLRWLPADVIFLAKILHLGLKIRGCLSRQPPDTFVDAFERRARAQPGRALLVWTGPGAGSVTFGELDARACQAAWALKAELGDPASLCAGEPTALLVLASQAVPALCMWLGLAKLGCPTAWINPHGRGMPLAHSVLSSGARVLVVDPDLRESLEEILPKLQAENIRCFYLSHTSPTPGVGALGAALDAAPSHPVPADLRAGITWRSPALFIYTSGTTGLPKPAILTHERVLQMSKMLSLSGATADDVVYTVLPLYHVMGLVVGILGCLDLGATCVLAPKFSTSCFWDDCRQHGVTVILYVGELLRYLCNIPQQPEDRTHTVRLAMGNGLRADVWETFQQRFGPIRIWEVYGSTEGNMGLVNYVGRCGALGKMSCLLRMLSPFELVQFDMEAAEPVRDNQGFCIPVGLGEPGLLLTKVVSQQPFVGYRGPRELSERKLVRNVRQSGDVYYNTGDVLAMDREGFLYFRDRLGDTFRWKGENVSTHEVEGVLSQVDFLQQVNVYGVCVPGCEGKVGMAAVQLAPGQTFDGEKLYQHVRAWLPAYATPHFIRIQDAMEVTSTFKLMKTRLVREGFNVGIVVDPLFVLDNRAQSFRPLTAEMYQAVCEGTWRL
notes: bile acyl-CoA synthetase (BACS, SLC27A5), human, residues 77-690, without the N-terminal membrane anchor, in pET-51b(+); vector pET-51b(+); also called BACS lacking its N-terminal membrane anchor; bile acyl-CoA synthetase; source: E. coli Rosetta (DE3) pLysS, purified (Strep-Tactin)
binding result: binds

Reference: article PMC4966956, “Analysis of the Bile Salt Export Pump (ABCB11) Interactome Employing Complementary Approaches” (PLoS ONE, 2016)
